Measurements as given in patent US20060063234A1 (CRUCELL HOLLAND B V, published 2006).

Molecular target: T1, EpCAM (epithelial cell adhesion molecule), human tumor antigen, on LS174T colon carcinoma cells (human, UniProt P16422 24-314)
T1 sequence (looked up): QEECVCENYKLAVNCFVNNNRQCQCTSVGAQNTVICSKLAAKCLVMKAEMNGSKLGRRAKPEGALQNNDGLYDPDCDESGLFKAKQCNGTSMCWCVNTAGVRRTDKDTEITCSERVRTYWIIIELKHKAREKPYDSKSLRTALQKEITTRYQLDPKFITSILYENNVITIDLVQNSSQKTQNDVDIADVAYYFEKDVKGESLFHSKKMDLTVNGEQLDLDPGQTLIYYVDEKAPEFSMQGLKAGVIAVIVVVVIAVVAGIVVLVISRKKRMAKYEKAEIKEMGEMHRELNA
Experiment: cell-based or functional assay

B1: anti-EpCAM IgM (PER.C6 produced recombinant human IgM, encoded by pEpcamIgM) (antibody)
light: QVQLVQSGAEVKKPGSSVRVSCKASGGTFSSYAISWVRQAPGQGLEWMGGIIPIFGTANYAQKFQGRVTITADESTSTAYMELSSLRSEDTAVYYCARDPFLHYWGQGTLVTVSTGSASAPTLFPLVSCENSPSDTSSVAVGCLAQDFLPDSITFSWKYKNNSDISSTRGFPSVLRGGKYAATSQVLLPSKDVMQGTDEHVVCKVQHPNGNKEKNVPLPVIAELPPKVSVFVPPRDGFFGNPRKSKLICQATGFSPRQIQVSWLREGKQVGSGVTTDQVQAEAKESGPTTYKVTSTLTIKESDWLSQSMFTCRVDHRGLTFQQNASSMCVPDQDTAIRVFAIPPSFASIFLTKSTKLTCLVTDLTTYDSVTISWTRQNGEAVKTHTNISESHPNATFSAVGEASICEDDWNSGERFTCTVTHTDLPSPLKQTISRPKGVALHRPDVYLLPPAREQLNLRESATITCLVTGFSPADVFVQWMQRGQPLSPEKYVTSAPMPEPQAPGRYFAHSILTVSEEEWNTGETYTCVVAHEALPNRVTERTVDKSTGKPTLYNVSLVMSDTAGTCY
heavy: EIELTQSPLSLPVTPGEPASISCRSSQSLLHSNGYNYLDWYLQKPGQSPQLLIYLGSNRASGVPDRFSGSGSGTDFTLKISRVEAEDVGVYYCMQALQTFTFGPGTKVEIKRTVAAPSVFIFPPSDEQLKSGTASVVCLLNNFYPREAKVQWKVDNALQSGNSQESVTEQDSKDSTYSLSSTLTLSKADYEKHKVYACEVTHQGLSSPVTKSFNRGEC
complement dependent cytotoxicity on LS174T cells: potency relative to anti-EpCAM IgG: ~10 fold
